Assay results from paper doi:10.1101/2022.03.02.482546.

B1: recombinant human insulin-like growth factor-binding protein 7 (natural protein)
chain: SSSDTCGPCEPASCPPLPPLGCLLGETRDACGCCPMCARGEGEPCGGGGAGRGYCAPGMECVKSRKRRKGKAGAAAGGPGVSGVCVCKSRYPVCGSDGTTYPSGCQLRAASQRAESRGEKAITQVSKGTCEQGPSIVTPPKDIWNVTGAQVYLSCEVIGIPTPVLIWNKVKRGHYGVQRTELLPGDRDNLAIQTRGGPEKHEVTGWVLVSPLSKEDAGEYECHASNSQGQASASAKITVVDALHEIPVKKGEGAEL
B2: recombinant human hepatocyte growth factor activator (enzyme)
chain: QPGGNRTESPEPNATATPAIPTILVTSVTSETPATSAPEAEGPQSGGLPPPPRAVPSSSSPQAQALTEDGRPCRFPFRYGGRMLHACTSEGSAHRKWCATTHNYDRDRAWGYCVEATPPPGGPAALDPCASGPCLNGGSCSNTQDPQSYHCSCPRAFTGKDCGTEKCFDETRYEYLEGGDRWARVRQGHVEQCECFGGRTWCEGTRHTACLSSPCLNGGTCHLIVATGTTVCACPPGFAGRLCNIEPDERCFLGNGTGYRGVASTSASGLSCLAWNSDLLYQELHVDSVGAAALLGLGPHAYCRNPDNDERPWCYVVKDSALSWEYCRLEACESLTRVQLSPDLLATLPEPASPGRQACGRRHKKRTFLRPRIIGGSSSLPGSHPWLAAIYIGDSFCAGSLVHTCWVVSAAHCFSHSPPRDSVSVVLGQHFFNRTTDVTQTFGIEKYIPYTLYSVFNPSDHDLVLIRLKKKGDRCATRSQFVQPICLPEPGSTFPAGHKCQIAGWGHLDENVSGYSSSLREALVPLVADHKCSSPEVYGADISPNMLCAGYFDCKSDACQGDSGGPLACEKNGVAYLYGIISWGDGCGRLHKPGVYTRVANYVDWINDRIRPPRRLVAPS
B3: recombinant human high-mobility group protein B2 (natural protein)
chain: MGKGDPNKPRGKMSSYAFFVQTCREEHKKKHPDSSVNFAEFSKKCSERWKTMSAKEKSKFEDMAKSDKARYDREMKNYVPPKGDKKGKKKDPNAPKRPPSAFFLFCSEHRPKIKSEHPGLSIGDTAKKLGEMWSEQSAKDKQPYEQKAAKLKEKYEKDIAAYRAKGKSEAGKKGPGRPTGSKKKNEPEDEEEEEEEEDEDEEEEDEDEE
B4: recombinant human slit homolog 2 protein (ligand)
chain: QCSCSGSTVDCHGLALRSVPRNIPRNTERLDLNGNNITRITKTDFAGLRHLRVLQLMENKISTIERGAFQDLKELERLRLNRNHLQLFPELLFLGTAKLYRLDLSENQIQAIPRKAFRGAVDIKNLQLDYNQISCIEDGAFRALRDLEVLTLNNNNITRLSVASFNHMPKLRTFRLHSNNLYCDCHLAWLSDWLRQRPRVGLYTQCMGPSHLRGHNVAEVQKREFVCSGHQSFMAPSCSVLHCPAACTCSNNIVDCRGKGLTEIPTNLPETITEIRLEQNTIKVIPPGAFSPYKKLRRIDLSNNQISELAPDAFQGLRSLNSLVLYGNKITELPKSLFEGLFSLQLLLLNANKINCLRVDAFQDLHNLNLLSLYDNKLQTIAKGTFSPLRAIQTMHLAQNPFICDCHLKWLADYLHTNPIETSGARCTSPRRLANKRIGQIKSKKFRCSAKEQYFIPGTEDYRSKLSGDCFADLACPEKCRCEGTTVDCSNQKLNKIPEHIPQYTAELRLNNNEFTVLEATGIFKKLPQLRKINFSNNKITDIEEGAFEGASGVNEILLTSNRLENVQHKMFKGLESLKTLMLRSNRITCVGNDSFIGLSSVRLLSLYDNQITTVAPGAFDTLHSLSTLNLLANPFNCNCYLAWLGEWLRKKRIVTGNPRCQKPYFLKEIPIQDVAIQDFTCDDGNDDNSCSPLSRCPTECTCLDTVVRCSNKGLKVLPKGIPRDVTELYLDGNQFTLVPKELSNYKHLTLIDLSNNRISTLSNQSFSNMTQLLTLILSYNRLRCIPPRTFDGLKSLRLLSLHGNDISVVPEGAFNDLSALSHLAIGANPLYCDCNMQWLSDWVKSEYKEPGIARCAGPGEMADKLLLTTPSKKFTCQGPVDVNILAKCNPCLSNPCKNDGTCNSDPVDFYRCTCPYGFKGQDCDVPIHACISNPCKHGGTCHLKEGEEDGFWCICADGFEGENCEVNVDDCEDNDCENNSTCVDGINNYTCLCPPEYTGELCEEKLDFCAQDLNPCQHDSKCILTPKGFKCDCTPGYVGEHCDIDFDDCQDNKCKNGAHCTDAVNGYTCICPEGYSGLFCEFSPPMVLPRTSPCDNFDCQNGAQCIVRINEPICQCLPGYQGEKCEKLVSVNFINKESYLQIPSAKVRPQTNITLQIATDEDSGILLYKGDKDHIAVELYRGRVRASYDTGSHPASAIYSVETINDGNFHIVELLALDQSLSLSVDGGNPKIITNLSKQSTLNFDSPLYVGGMPGKSNVASLRQAPGQNGTSFHGCIRNLYINSELQDFQKVPMQTGILPGCEPCHKKVCAHGTCQPSSQAGFTCECQEGWMGPLCDQRTNDPCLGNKCVHGTCLPINAFSYSCKCLEGHGGVLCDEEEDLFNPCQAIKCKHGKCRLSGLGQPYCECSSGYTGDSCDREISCRGERIRDYYQKQQGYAACQTTKKVSRLECRGGCAGGQCCGPLRSKRRKYSFECTDGSSFVDEVEKVVKCGCTRCVS
B5: full-length human CEMIP (cell migration-inducing and hyaluronan-binding protein) (natural protein)
chain: TVAAGCPDQSPELQPWNPGHDQDHHVHIGQGKTLLLTSSATVYSIHISEGGKLVIKDHDEPIVLRTRHILIDNGGELHAGSALCPFQGNFTIILYGRADEGIQPDPYYGLKYIGVGKGGALELHGQKKLSWTFLNKTLHPGGMAEGGYFFERSWGHRGVIVHVIDPKSGTVIHSDRFDTYRSKKESERLVQYLNAVPDGRILSVAVNDEGSRNLDDMARKAMTKLGSKHFLHLGFRHPWSFLTVKGNPSSSVEDHIEYHGHRGSAAARVFKLFQTEHGEYFNVSLSSEWVQDVEWTEWFDHDKVSQTKGGEKISDLWKAHPGKICNRPIDIQATTMDGVNLSTEVVYKKGQDYRFACYDRGRACRSYRVRFLCGKPVRPKLTVTIDTNVNSTILNLEDNVQSWKPGDTLVIASTDYSMYQAEEFQVLPCRSCAPNQVKVAGKPMYLHIGEEIDGVDMRAEVGLLSRNIIVMGEMEDKCYPYRNHICNFFDFDTFGGHIKFALGFKAAHLEGTELKHMGQQLVGQYPIHFHLAGDVDERGGYDPPTYIRDLSIHHTFSRCVTVHGSNGLLIKDVVGYNSLGHCFFTEDGPEERNTFDHCLGLLVKSGTLLPSDRDSKMCKMITEDSYPGYIPKPRQDCNAVSTFWMANPNNNLINCAAAGSEETGFWFIFHHVPTGPSVGMYSPGYSEHIPLGKFYNNRAHSNYRAGMIIDNGVKTTEASAKDKRPFLSIISARYSPHQDADPLKPREPAIIRHFIAYKNQDHGAWLRGGDVWLDSCRFADNGIGLTLASGGTFPYDDGSKQEIKNSLFVGESGNVGTEMMDNRIWGPGGLDHSGRTLPIGQNFPIRGIQLYDGPINIQNCTFRKFVALEGRHTSALAFRLNNAWQSCPHNNVTGIAFEDVPITSRVFFGEPGPWFNQLDMDGDKTSVFHDVDGSVSEYPGSYLTKNDNWLVRHPDCINVPDWRGAICSGCYAQMYIQAYKTSNLRMKIIKNDFPSHPLYLEGALTRSTHYQQYQPVVTLQKGYTIHWDQTAPAELAIWLINFNKGDWIRVGLCYPRGTTFSILSDVHNRLLKQTSKTGVFVRTLQMDKVEQSYPGRSHYYWDEDSGLLFLKLKAQNEREKFAFCSMKGCERIKIKALIPKNAGVSDCTATAYPKFTERAVVDVPMPKKLFGSQLKTKDHFLEVKMESSKQHFFHLWNDFAYIEVDGKKYPSSEDGIQVVVIDGNQGRVVSHTSFRNSILQGIPWQLFNYVATIPDNSIVLMASKGRYVSRGPWTRVLEKLGADRGLKLKEQMAFVGFKGSFRPIWVTLDTEDHKAKIFQVVPIPVVKKKKL
B6: recombinant human secreted protein acidic and rich in cysteine (natural protein)
chain: APQQEALPDETEVVEETVAEVTEVSVGANPVQVEVGEFDDGAEETEEEVVAENPCQNHHCKHGKVCELDENNTPMCVCQDPTSCPAPIGEFEKVCSNDNKTFDSSCHFFATKCTLEGTKKGHKLHLDYIGPCKYIPPCLDSELTEFPLRMRDWLKNVLVTLYERDEDNNLLTEKQKLRVKKIHENEKRLEAGDHPVELLARDFEKNYNMYIFPVHWQFGQLDQHPIDGYLSHTELAPLRAPLIPMEHCTTRFFETCDLDNDKYIALDEWAGCFGIKQKDIDKDLVI

These molecules were tested against soluble form of full-length LRP1 (low-density lipoprotein receptor-related protein 1) (human) (assay: ELISA).

**Q.** “recombinant human tumour necrosis factor-inducible gene 6 protein (from UniProt P98066 18-277) (natural protein)” was tested. Which Kd did it give?
**A.** 11 nM

**Q.** For “recombinant human ADAMTS1 (from UniProt Q9UHI8 50-967) (enzyme)”, which Kd is on record?
**A.** 20.2 nM

**Q.** How did the Kd turn out when “recombinant human leukemia inhibitory factor (from UniProt P15018 23-202) (ligand)” was run?
**A.** > 200 nM

**Q.** With “recombinant human high-mobility group protein B1 (from UniProt P09429 1-215) (natural protein)” as the molecule, how does the Kd read?
**A.** 6.4 nM

**Q.** With B1 as the molecule, how does the Kd read?
**A.** 11 nM

**Q.** Which Kd does the source give for B2 here?
**A.** > 500 nM

**Q.** How did the Kd turn out when B3 was run?
**A.** 3.9 nM

**Q.** How did the Kd turn out when B4 was run?
**A.** 2 nM

**Q.** With B5 as the molecule, how does the Kd read?
**A.** 2.6 nM

**Q.** Which Kd does the source give for B6 here?
**A.** 41 nM
